Experiments:
[1] = biological target: human αV on parental A375M cells (αVβ3 and αVβ5 integrins) (human) (UniProt P06756); test: cell-based or functional assay
[2] = biological target: α5β1 integrin on K562 cells (UniProt P08648); test: cell-based or functional assay
[3] = biological target: α4β1 integrin on J6.77 cells (UniProt P13612); test: cell-based or functional assay
[4] = biological target: human αVβ6 integrin on cells (human) (UniProt P06756); test: cell-based or functional assay
[5] = biological target: cynomolgus αV on transfected HEK-293 cells (cynomolgus); test: FACS, transfected HEK-293 (parental: 0)
[6] = biological target: cynomolgus αVβ6 on cells (cynomolgus); test: FACS, transfected HEK-293 (parental: 0)
[7] = biological target: cynomolgus β6 on transfected HEK-293 cells (cynomolgus); test: FACS, transfected HEK-293 (parental: 0)
[8] = biological target: mouse αV on transfected HEK-293 cells (mouse) (UniProt P43406); test: FACS, transfected HEK-293 (parental: 0)
Sequence of mouse αV on transfected HEK-293 cells (mouse) (P43406 31-1044): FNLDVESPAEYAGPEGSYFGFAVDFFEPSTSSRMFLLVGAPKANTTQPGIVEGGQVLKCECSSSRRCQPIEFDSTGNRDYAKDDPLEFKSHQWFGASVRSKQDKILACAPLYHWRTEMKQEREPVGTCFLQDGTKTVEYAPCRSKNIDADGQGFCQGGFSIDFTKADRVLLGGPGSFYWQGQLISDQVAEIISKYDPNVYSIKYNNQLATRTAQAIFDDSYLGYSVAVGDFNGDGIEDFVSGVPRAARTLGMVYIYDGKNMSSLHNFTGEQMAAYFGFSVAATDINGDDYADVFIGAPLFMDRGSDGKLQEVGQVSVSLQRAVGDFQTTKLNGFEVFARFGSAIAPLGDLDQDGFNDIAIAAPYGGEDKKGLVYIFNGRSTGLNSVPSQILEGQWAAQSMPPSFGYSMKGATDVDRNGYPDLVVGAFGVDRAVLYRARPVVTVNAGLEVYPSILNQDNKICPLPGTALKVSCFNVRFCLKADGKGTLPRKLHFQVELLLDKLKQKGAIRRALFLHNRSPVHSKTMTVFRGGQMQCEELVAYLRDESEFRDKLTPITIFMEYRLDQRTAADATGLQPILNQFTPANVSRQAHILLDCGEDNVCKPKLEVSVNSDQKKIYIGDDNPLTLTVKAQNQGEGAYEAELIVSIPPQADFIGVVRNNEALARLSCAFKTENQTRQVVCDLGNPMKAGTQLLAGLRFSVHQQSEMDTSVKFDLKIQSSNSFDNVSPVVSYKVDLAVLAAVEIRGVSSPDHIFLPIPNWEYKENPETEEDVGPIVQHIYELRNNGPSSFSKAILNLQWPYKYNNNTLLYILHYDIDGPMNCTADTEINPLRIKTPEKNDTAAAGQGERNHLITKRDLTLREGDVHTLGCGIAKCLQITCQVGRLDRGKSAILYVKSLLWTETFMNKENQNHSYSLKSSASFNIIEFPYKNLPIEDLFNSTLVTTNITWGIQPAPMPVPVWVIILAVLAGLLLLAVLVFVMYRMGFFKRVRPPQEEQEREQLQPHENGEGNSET

[9] = biological target: mouse αVβ6 on cells (mouse) (UniProt P43406); test: FACS, transfected HEK-293 (parental: 0)
[10] = biological target: mouse β6 on transfected HEK-293 cells (mouse) (UniProt Q9Z0T9); test: FACS, transfected HEK-293 (parental: 0)
[11] = biological target: human αV on parental A375M cells (αVβ3 and αVβ5 integrins) (human) (UniProt P06756); test: FACS, 1 ug/ml, parental A375M cells, day 1
[12] = biological target: human αV on parental A375M cells (αVβ3 and αVβ5 integrins) (human) (UniProt P06756); test: FACS, 1 ug/ml, parental A375M cells, day 2
soluble αVβ6 (human) = soluble αVβ6 (human) (UniProt P06756); test: ELISA, 1 ug/mL on plate-coated soluble αVβ6
[13] = biological target: human αVβ6 integrin on cells (human) (UniProt P06756); test: FMAT, 1 ug/mL, HEK 293 cells stably overexpressing αVβ6
[14] = biological target: mouse αVβ6 on cells (mouse) (UniProt P43406); test: FACS, K562 cells expressing mouse αVβ6 (parental K562: 15)
[15] = biological target: cynomolgus αVβ6 on cells (cynomolgus); test: FACS, K562 cells expressing cynomolgus αVβ6 (parental K562: 15)
[16] = biological target: cynomolgus αVβ6 on cells (cynomolgus); test: FACS, 1 ug/ml, HEK-293 transfected with cynomolgus αV and β6, day 1
[17] = biological target: cynomolgus αVβ6 on cells (cynomolgus); test: FACS, 1 ug/ml, HEK-293 transfected with cynomolgus αV and β6, day 2

Sequence of human αVβ6 integrin on cells (human) (P06756 31-1048, chain 1 of 2): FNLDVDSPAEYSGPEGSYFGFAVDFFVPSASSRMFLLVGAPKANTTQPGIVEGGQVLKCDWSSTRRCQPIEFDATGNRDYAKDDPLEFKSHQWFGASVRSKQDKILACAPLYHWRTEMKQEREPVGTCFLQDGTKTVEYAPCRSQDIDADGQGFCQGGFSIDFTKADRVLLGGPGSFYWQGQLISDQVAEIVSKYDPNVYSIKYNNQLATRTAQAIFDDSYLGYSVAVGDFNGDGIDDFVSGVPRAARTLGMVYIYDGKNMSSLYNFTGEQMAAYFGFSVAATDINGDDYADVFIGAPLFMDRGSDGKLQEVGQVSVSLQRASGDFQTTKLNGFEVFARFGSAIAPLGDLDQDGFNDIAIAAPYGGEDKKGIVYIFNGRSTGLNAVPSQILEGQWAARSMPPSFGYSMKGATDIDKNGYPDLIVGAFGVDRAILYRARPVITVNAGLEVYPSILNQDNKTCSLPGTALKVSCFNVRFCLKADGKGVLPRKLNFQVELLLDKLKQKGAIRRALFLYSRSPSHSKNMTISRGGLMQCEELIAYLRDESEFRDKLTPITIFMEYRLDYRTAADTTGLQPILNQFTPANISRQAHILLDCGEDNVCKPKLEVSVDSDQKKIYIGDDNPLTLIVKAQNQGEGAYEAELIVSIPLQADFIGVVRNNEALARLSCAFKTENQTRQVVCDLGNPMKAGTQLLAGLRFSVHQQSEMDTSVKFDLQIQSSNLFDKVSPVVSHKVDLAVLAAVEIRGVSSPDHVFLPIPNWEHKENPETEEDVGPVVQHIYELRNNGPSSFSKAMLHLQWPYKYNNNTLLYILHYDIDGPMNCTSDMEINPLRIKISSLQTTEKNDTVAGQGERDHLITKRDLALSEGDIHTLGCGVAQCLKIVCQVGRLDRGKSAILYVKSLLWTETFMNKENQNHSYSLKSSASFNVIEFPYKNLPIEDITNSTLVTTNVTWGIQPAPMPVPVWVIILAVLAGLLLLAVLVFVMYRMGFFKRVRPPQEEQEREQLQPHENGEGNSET
Sequence of human αVβ6 integrin on cells (human) (P18564 22-788, chain 2 of 2, further chain): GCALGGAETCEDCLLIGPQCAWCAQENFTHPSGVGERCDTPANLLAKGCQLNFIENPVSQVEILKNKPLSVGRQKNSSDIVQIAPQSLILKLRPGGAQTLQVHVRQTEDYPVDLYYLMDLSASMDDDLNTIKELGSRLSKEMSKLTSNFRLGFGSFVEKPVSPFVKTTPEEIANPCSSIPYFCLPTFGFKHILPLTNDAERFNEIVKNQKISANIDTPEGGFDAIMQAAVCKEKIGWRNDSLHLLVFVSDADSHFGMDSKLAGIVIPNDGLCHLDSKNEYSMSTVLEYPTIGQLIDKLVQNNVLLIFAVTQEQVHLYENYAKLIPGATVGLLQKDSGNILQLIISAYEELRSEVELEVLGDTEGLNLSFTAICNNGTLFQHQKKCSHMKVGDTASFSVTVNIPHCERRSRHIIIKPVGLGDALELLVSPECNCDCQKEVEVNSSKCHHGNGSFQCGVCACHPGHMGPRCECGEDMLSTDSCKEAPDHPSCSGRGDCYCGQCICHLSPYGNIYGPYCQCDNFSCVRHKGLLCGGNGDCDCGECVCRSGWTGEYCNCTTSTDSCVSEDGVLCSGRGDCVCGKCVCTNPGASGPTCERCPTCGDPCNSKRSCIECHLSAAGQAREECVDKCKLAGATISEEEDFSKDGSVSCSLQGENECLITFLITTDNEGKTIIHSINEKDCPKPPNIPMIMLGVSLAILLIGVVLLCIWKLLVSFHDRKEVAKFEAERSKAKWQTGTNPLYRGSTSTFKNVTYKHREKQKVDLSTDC
Sequence of human αV on parental A375M cells (αVβ3 and αVβ5 integrins) (human) (P06756 31-1048 A375M, form in doubt): as the sequence (P06756 31-1048, chain 1 of 2) above, with A345M counted along it
Sequence of α5β1 integrin on K562 cells (P08648 42-1049, chain 1 of 2): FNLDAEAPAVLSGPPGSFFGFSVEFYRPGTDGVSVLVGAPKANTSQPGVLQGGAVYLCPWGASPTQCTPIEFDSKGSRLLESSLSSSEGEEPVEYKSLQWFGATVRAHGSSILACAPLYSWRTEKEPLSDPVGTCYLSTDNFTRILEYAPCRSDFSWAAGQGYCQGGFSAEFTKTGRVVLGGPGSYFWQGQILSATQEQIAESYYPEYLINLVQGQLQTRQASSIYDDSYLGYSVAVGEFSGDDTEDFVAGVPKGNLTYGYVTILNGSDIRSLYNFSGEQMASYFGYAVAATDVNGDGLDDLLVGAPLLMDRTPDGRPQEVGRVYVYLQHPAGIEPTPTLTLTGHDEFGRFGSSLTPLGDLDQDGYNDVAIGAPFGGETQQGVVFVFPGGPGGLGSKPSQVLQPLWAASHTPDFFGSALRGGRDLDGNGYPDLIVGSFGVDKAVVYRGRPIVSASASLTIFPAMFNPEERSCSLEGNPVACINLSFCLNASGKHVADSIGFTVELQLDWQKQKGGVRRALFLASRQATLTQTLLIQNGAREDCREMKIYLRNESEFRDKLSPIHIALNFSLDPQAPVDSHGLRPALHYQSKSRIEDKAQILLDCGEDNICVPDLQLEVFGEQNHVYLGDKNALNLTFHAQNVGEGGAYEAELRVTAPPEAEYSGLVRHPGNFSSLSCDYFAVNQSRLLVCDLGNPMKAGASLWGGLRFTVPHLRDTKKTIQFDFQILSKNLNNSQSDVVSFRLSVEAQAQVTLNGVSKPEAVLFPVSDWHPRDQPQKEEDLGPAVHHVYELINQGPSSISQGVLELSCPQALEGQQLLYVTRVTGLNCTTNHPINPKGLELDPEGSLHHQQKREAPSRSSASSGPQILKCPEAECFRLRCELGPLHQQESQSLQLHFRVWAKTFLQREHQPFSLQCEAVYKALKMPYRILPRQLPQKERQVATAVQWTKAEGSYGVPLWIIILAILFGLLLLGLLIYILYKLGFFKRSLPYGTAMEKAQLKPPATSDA
Sequence of α5β1 integrin on K562 cells (P05556 21-798, chain 2 of 2, further chain): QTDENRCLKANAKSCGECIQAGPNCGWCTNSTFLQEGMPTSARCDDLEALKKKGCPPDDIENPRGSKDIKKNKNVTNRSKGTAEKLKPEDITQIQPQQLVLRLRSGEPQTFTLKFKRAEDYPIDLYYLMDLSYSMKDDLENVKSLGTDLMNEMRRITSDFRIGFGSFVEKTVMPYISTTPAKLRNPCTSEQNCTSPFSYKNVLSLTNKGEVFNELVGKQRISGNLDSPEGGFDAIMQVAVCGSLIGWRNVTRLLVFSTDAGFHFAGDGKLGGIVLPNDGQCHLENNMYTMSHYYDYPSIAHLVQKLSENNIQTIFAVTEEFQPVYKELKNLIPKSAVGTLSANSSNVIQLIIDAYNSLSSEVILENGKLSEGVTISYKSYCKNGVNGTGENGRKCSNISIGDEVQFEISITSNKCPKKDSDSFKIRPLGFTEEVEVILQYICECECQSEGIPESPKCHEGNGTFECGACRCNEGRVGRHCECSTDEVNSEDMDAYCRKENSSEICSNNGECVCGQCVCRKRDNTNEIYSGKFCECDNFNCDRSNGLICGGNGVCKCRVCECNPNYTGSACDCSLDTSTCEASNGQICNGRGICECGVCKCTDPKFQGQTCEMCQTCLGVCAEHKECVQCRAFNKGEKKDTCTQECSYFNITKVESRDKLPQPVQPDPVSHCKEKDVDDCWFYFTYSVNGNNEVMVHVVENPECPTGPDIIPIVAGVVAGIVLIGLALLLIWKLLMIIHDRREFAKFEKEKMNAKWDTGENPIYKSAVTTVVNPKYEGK

Human IgG Isotype Control (antibody)
Percent Inhibition of A375M adhesion to osteopontin peptide, 5 ug/ml [1]: 3% | % Inhibition of K562 adhesion to fibronectin [2]: -12% | Percent Inhibition of K562 adhesion to FN9-10, 5 ug/ml [2]: 11%

Human IgG2 (antibody)
Percent Inhibition of J6.77 adhesion to CS-1 peptide, 5 ug/ml [3]: -9%

Mouse IgG Control (antibody)
Percent Inhibition of A375M adhesion to osteopontin peptide, 5 ug/ml [1]: 5%

murine anti-αVβ6 antibody 2077z (Cat#MAB2077z, Chemicon)
Estimated IC50, adhesion assay, n = 1 [4]: 0.226 µg/mL | Estimated IC50, adhesion assay, n = 2 [4]: 0.185 µg/mL | Estimated IC50, adhesion assay, n = 3 [4]: 0.286 µg/mL | percent of cells shifted [5]: 0% | percent of cells shifted [6]: 20% | percent of cells shifted [7]: 5% | percent of cells shifted [8]: 1% | percent of cells shifted [9]: 45% | percent of cells shifted [10]: 11% | % Cells Shifted [11]: 30% | GeoMean [11]: 2.03 | % Cells Shifted [12]: 5% | GeoMean [12]: 15.4 | ELISA OD (soluble αVβ6 (human)): 6 OD | FMAT Count [13]: 67 | FMAT FL1 [13]: 659 | FMAT FL1XCount [13]: 44200 | Geometric Mean Shift (arbitrary units) [14]: 122 | Geometric Mean Shift (arbitrary units) [15]: 84 | % Cells Shifted [16]: 42% | GeoMean [16]: 55.5 | % Cells Shifted [17]: 11% | GeoMean [17]: 28.1

Human IgG1 (antibody)
Percent Inhibition of J6.77 adhesion to CS-1 peptide, 5 ug/ml [3]: -6%

— US20160319032A1
